B1: Keratin, type I cytoskeletal 40 (Homo sapiens), Q6A162 (parent)
chain: MTSDCSSTHCSPESCGTASGCAPASSCSVETACLPGTCATSRCQTPSFLSRSRGLTGCLLPCYFTGSCNSPCLVGNCAWCEDGVFTSNEKETMQFLNDRLASYLEKVRSLEETNAELESRIQEQCEQDIPMVCPDYQRYFNTIEDLQQKILCTKAENSRLAVQLDNCKLATDDFKSKYESELSLRQLLEADISSLHGILEELTLCKSDLEAHVESLKEDLLCLKKNHEEEVNLLREQLGDRLSVELDTAPTLDLNRVLDEMRCQCETVLANNRREAEEWLAVQTEELNQQQLSSAEQLQGCQMEILELKRTASALEIELQAQQSLTESLECTVAETEAQYSSQLAQIQCLIDNLENQLAEIRCDLERQNQEYQVLLDVKARLEGEINTYWGLLDSEDSRLSCSPCSTTCTSSNTCEPCSAYVICTVENCCL
B2: Glutathione S-transferase Mu 3 (Homo sapiens), P21266 (parent)
chain: MSCESSMVLGYWDIRGLAHAIRLLLEFTDTSYEEKRYTCGEAPDYDRSQWLDVKFKLDLDFPNLPYLLDGKNKITQSNAILRYIARKHNMCGETEEEKIRVDIIENQVMDFRTQLIRLCYSSDHEKLKPQYLEELPGQLKQFSMFLGKFSWFAGEKLTFVDFLTYDILDQNRIFDPKCLDEFPNLKAFMCRFEALEKIAAYLQSDQFCKMPINNKMAQWGNKPVC
partner: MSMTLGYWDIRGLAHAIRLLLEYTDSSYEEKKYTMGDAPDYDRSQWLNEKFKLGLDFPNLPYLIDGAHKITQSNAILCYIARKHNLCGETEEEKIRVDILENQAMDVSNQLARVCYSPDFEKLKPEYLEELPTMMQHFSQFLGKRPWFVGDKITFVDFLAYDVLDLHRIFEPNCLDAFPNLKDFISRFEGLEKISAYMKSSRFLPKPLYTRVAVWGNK

Variants of: B1
Settings: with wt1_human WT1, P19544
Chain of wt1_human WT1, P19544 (P19544 whole entry): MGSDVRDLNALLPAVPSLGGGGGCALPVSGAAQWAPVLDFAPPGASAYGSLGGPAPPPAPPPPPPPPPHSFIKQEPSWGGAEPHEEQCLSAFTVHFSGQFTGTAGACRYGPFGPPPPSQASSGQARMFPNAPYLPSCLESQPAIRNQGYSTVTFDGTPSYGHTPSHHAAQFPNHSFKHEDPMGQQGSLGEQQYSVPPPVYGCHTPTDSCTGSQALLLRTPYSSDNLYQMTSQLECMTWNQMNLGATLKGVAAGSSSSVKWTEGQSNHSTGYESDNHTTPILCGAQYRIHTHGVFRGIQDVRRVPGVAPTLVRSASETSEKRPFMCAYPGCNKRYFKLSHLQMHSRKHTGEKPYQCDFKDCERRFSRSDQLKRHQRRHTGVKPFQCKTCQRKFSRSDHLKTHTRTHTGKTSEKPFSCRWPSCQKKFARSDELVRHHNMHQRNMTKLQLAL

Row | Variant | effect of a mutation on the interaction
1 | T153M | with no effect
2 | S102N | with no effect
3 | F85S | with no effect
4 | T37A | with no effect

The remaining lines, values ahead:

Row | effect of a mutation on the interaction | Variant
5 | with no effect | R235H
6 | with no effect | E286D
7 | with no effect | C265Y
8 | with no effect | S406L
9 | with no effect | T388M
10 | with no effect | M303T
11 | with no effect | C349R

Variants of: B1
Settings: with k2c4_human KRT4, P19013
Chain of k2c4_human KRT4, P19013 (P19013 whole entry): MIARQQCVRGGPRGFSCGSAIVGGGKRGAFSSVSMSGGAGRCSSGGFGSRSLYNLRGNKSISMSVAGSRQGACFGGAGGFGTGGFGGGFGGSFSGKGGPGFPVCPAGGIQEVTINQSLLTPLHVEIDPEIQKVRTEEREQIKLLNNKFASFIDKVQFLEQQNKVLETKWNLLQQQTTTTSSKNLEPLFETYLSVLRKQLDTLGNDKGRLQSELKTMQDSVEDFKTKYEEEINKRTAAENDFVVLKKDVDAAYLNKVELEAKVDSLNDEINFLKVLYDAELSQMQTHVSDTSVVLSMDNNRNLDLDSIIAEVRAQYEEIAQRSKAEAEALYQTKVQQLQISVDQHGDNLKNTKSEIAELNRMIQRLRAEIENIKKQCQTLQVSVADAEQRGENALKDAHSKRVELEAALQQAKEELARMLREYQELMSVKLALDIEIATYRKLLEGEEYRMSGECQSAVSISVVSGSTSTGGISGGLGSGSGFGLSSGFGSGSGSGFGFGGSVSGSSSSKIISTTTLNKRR

Row | Variant | effect of a mutation on the interaction
12 | T153M | with no effect
13 | S102N | with no effect
14 | F85S | with no effect
15 | T37A | with no effect

Further lines, results first:

Row | effect of a mutation on the interaction | Variant
16 | with no effect | R235H
17 | with no effect | E286D
18 | with no effect | C265Y
19 | with no effect | S406L
20 | with no effect | T388M
21 | with no effect | M303T
22 | with no effect | C349R

Variants of: B1
Settings: with mta1_human MTA1, Q13330
Chain of mta1_human MTA1, Q13330 (Q13330 whole entry): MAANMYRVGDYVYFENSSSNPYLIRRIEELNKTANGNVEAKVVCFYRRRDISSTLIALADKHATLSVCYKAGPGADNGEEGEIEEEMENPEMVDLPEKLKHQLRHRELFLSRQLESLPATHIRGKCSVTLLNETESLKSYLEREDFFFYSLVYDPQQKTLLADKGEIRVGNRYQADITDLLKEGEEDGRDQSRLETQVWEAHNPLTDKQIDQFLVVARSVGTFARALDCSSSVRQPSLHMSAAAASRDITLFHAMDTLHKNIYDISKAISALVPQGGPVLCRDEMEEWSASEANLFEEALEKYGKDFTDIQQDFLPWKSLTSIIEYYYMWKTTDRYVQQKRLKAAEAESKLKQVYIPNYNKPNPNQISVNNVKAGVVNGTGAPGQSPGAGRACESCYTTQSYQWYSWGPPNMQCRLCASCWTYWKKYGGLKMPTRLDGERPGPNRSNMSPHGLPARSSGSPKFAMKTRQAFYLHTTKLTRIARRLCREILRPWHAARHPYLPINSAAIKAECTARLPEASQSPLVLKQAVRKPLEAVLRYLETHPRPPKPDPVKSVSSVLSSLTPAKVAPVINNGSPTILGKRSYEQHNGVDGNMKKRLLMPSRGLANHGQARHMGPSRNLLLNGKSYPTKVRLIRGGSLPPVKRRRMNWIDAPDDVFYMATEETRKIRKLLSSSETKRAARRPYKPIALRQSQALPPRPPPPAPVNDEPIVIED

Row | Variant | effect of a mutation on the interaction
23 | T153M | with no effect
24 | S102N | with no effect
25 | F85S | with no effect
26 | T37A | with no effect

Now from value to variant:

Row | effect of a mutation on the interaction | Variant
27 | with no effect | R235H
28 | with no effect | E286D
29 | with no effect | C265Y
30 | with no effect | S406L
31 | with no effect | T388M
32 | with no effect | M303T
33 | with no effect | C349R

Variants of: B1
Settings: with prs8_human PSMC5, P62195
Chain of prs8_human PSMC5, P62195 (P62195 whole entry): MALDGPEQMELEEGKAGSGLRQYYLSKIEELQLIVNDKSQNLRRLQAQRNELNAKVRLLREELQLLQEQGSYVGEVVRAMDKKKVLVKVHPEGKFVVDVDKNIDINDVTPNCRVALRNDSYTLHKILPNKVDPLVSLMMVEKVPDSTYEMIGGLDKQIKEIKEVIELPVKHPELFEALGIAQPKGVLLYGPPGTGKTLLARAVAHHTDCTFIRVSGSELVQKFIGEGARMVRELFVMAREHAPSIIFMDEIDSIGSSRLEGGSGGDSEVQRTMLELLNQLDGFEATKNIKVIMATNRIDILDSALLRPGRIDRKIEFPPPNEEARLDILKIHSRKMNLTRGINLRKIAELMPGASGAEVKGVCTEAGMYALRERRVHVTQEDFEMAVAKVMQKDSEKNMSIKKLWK

Row | Variant | effect of a mutation on the interaction
34 | T153M | with no effect
35 | S102N | with no effect
36 | F85S | with no effect
37 | T37A | with no effect

Results, then the variant that gave them:

Row | effect of a mutation on the interaction | Variant
38 | with no effect | R235H
39 | with no effect | E286D
40 | with no effect | C265Y
41 | with no effect | S406L
42 | with no effect | T388M
43 | with no effect | M303T
44 | with no effect | C349R

Variants of: B1
Settings: with snai1_human SNAI1, O95863
Chain of snai1_human SNAI1, O95863 (O95863 whole entry): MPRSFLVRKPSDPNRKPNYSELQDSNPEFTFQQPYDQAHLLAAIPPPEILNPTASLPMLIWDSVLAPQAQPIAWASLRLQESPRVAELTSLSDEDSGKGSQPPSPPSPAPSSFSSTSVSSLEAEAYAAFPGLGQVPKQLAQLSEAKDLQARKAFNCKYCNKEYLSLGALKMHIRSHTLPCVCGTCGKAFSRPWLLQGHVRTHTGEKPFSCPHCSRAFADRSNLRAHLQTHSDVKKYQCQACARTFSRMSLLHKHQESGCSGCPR

Row | Variant | effect of a mutation on the interaction
45 | T153M | with no effect
46 | S102N | with no effect
47 | F85S | with no effect
48 | T37A | with no effect

The remaining lines, values ahead:

Row | effect of a mutation on the interaction | Variant
49 | with no effect | R235H
50 | with no effect | E286D
51 | with no effect | C265Y
52 | with no effect | S406L
53 | with no effect | T388M
54 | with no effect | M303T
55 | with no effect | C349R

Variants of: B2
Settings: with gstm4_human GSTM4, Q03013

Row | effect of a mutation on the interaction | Variant
56 | disrupting interaction strength | R86H
57 | disrupting interaction strength | L23P
